According to paper PMC5765332, “Evaluation of the Possible Utilization of ^68Ga-DOTATOC in Diagnosis of Adenocarcinoma Breast Cancer” (Asia Oceania Journal of Nuclear Medicine and Biology, 2018):

Assays:
in vivo [1] = experiment: in vivo; set-up: species or system BALB/c mice; settings: female, BALB/c, mouse, iv, 5.55 MBq, total radioactivity
Description: A few BALB/c mice that previously injected with spontaneous Murine Mammary Adenocarcinoma Cells (MMAC) which has been histopathologically approved for invasive ductal carcinoma, grade II/III, ([18]) were provided from Pasteur Institute, Tehran, Iran. These mice breast tumor model were used for development of the tumor allograft in other healthy Balb/c mice. For this purpose, the tumor allograft development was performed according to the previously reported procedure ([19]). Adenocarcinoma breast tumors of the mice were brought out and divided to 2–3 mm^3 segments. These segments were implanted percutaneously in the right side of the flank of inbred female BALB/c mice (16–25 g, 6–8 weeks old, Pasteur Institute, Tehran, Iran). 24-31 days post implantation, the tumor volume reached 70–80 mm^3. 5.55 MBq of final ^68Ga-DOTATOC solution was injected intravenously into the mice through their tail veins. Static PET images were captured for 10 min with three sets of emission images starting 30, 60 and 120 min post injection. In addition, PET emission scans were preceded by CT scans performed for anatomical reference and attenuation correction (spatial resolution 1.25 mm, 80 kV, 150 mAs) with a total CT scanning time of 20 s. Reconstruction was performed using the iterative algorithm with attenuation correction. The reconstruction settings were 4 iterations and 21 subsets to a 256×256 matrix, with a post-filtering of 2 mm. Transmission data were reconstructed within a matrix of equal size by means of filtered back-projection, yielding a co-registered image set. The reconstructed emission images were reformatted into coronal, sagittal and maximum intensity projection (MIP) image sets. Maximum, average and minimum standardized uptake values (SUV) for the observable organs in the images were calculated based on the region of interest (ROI) and according to Eq. 1: where C is the tissue radioactivity concentration (kBq/mL), I is the decay-corrected amount of injected radiolabeled complex [kBq], and w is the weight (g).

[2] = system: BALB/c mice with adenocarcinoma breast cancer; experiment: in vivo; settings: mouse, iv
Description: (§1) A few BALB/c mice that previously injected with spontaneous Murine Mammary Adenocarcinoma Cells (MMAC) which has been histopathologically approved for invasive ductal carcinoma, grade II/III, ([18]) were provided from Pasteur Institute, Tehran, Iran. These mice breast tumor model were used for development of the tumor allograft in other healthy Balb/c mice. For this purpose, the tumor allograft development was performed according to the previously reported procedure ([19]). Adenocarcinoma breast tumors of the mice were brought out and divided to 2–3 mm^3 segments. These segments were implanted percutaneously in the right side of the flank of inbred female BALB/c mice (16–25 g, 6–8 weeks old, Pasteur Institute, Tehran, Iran). 24-31 days post implantation, the tumor volume reached 70–80 mm^3. 100 μL of the radiolabeled complex with approximately 5.55 MBq radioactivity was injected intravenously into the BALB/c mice with adenocarcinoma breast cancer through their tail vein. The total amount of radioactivity injected into each animal was measured by counting the 1-mL syringe before and after injection in a dose calibrator with the fixed geometry. Biodistribution of the complex among tissues was determined by sacrificing the BALB/c mice at each selected time (15, 30 and 60 m) after injection using the animal care protocols. Blood samples were rapidly taken after scarification. The tissues (heart, kidneys, spleen, stomach, intestine, lung, liver, skin, bone, muscle, adrenal, pancreas and tumor) were weighed and rinsed with normal saline and their activities were determined with a p-type coaxial HPGe detector coupled with a multichannel analyzer. The percentage of injected dose per gram (%ID/g) for different organs was calculated by dividing the activity amount of each tissue (A) to the decay-corrected injected activity and the mass of each organ. Four […] were considered for each time interval. All values were expressed as mean ± standard deviation (Mean±SD) and the data were compared using Student’s T-test. P values of < 0.05 were considered statistically significant.

in vivo [3] = experiment: in vivo; set-up: species or system BALB/c mice; settings: female, BALB/c, mouse, iv, 5.55 MBq, total radioactivity; remark: listed apart in the source
Description: as §1

`C[C@@H](O)[C@@H]1NC(=O)[C@H](CCCCN)NC(=O)[C@@H](Cc2c[nH]c3ccccc23)NC(=O)[C@H](Cc2ccc(O)cc2)NC(=O)[C@@H](NC(=O)[C@@H](Cc2ccccc2)NC(=O)CN2CCN(CC(=O)O)CCN(CC(=O)O)CCN(CC(=O)O)CC2)CSSC[C@@H](C(=O)N[C@H](CO)[C@@H](C)O)NC1=O` [^68Ga-DOTATOC, metal not drawn] gave an SUV at 0.5 h (in vivo [1]) of 0.66 SUV, an SUV at 1 h (in vivo [1]) of 0.28 SUV and an SUV at 2 h (in vivo [1]) of 0.18 SUV. For the same molecule, the “blood clearance (in words)” value [2] was “fast blood clearance”, the tissue to tissue ratio at 0.25 h (in vivo [3]; Tumor/blood ratio) was 2.38 and the tissue to tissue ratio at 0.5 h (in vivo [3]; Tumor/blood ratio) was 3.37. The tissue to tissue ratio at 1 h (in vivo [3]; Tumor/blood ratio) was 9.92, the tissue to tissue ratio at 0.25 h (in vivo [3]; Tumor/muscle ratio) was 18.7 and the tissue to tissue ratio at 0.5 h (in vivo [3]; Tumor/muscle ratio) was 20.8. It also gave a tissue to tissue ratio at 1 h (in vivo [3]; Tumor/muscle ratio) of 19.8.
